Reference: article PMC12018148
Residue numbers refer to the chain shown, from its start. Names and notes keep the numbering of the source.

B1: protein Z-dependent protease inhibitor (ZPI), wild type, recombinant human (natural protein)
chain: LAPSPQSPETPAPQNQTSRVVQAPKEEEEDEQEASEEKASEEEKAWLMASRQQLAKETSNFGFSLLRKISMRHDGNMVFSPFGMSLAMTGLMLGATGPTETQIKRGLHLQALKPTKPGLLPSLFKGLRETLSRNLELGLTQGSFAFIHKDFDVKETFFNLSKRYFDTECVPMNFRNASQAKRLMNHYINKETRGKIPKLFDEINPETKLILVDYILFKGKWLTPFDPVFTEVDTFHLDKYKTIKVPMMYGAGKFASTFDKNFRCHVLKLPYQGNATMLVVLMEKMGDHLALEDYLTTDLVETWLRNMKTRNMEVFFPKFKLDQKYEMHELLRQMGIRRIFSPFADLSELSATGRNLQVSRVLQRTVIEVDERGTEAVAGILSEITAYSMPPVIKVDRPFHFMIYEETSGMLLFLGRVVNPTLL
B2: D293A ZPI (protein Z-dependent protease inhibitor with Asp 293 mutated to Ala), recombinant human (natural protein)
chain: B1 chain with D293A
B3: D293A/Y387D ZPI (double mutant of the protein Z-dependent protease inhibitor; P1 residue Y387 changed) (natural protein)
chain: B1 chain with D293A, Y387D

Key:
[1] = target: activated factor X (FXa) (human); experiment: kinetics of protease inhibition
Chain of activated factor X (FXa) (human) (P00742 whole entry): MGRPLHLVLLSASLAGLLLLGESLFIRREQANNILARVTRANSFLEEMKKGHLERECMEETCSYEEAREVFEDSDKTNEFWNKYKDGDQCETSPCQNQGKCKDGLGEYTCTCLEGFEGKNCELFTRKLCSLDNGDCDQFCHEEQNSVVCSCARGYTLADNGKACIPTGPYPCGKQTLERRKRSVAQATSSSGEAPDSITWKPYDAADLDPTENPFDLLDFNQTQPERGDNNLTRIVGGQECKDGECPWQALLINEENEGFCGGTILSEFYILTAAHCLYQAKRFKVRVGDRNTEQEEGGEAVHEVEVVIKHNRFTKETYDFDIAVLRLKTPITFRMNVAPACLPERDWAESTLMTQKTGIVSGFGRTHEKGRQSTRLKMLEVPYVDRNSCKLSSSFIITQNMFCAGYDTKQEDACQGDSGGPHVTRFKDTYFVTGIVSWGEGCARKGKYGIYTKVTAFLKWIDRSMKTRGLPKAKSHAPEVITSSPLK

[2] = target: activated factor XI (FXIa) (human); experiment: kinetics of protease inhibition

| Binder | ka with equimolar PZ and lipids, no FVa [1] [M⁻¹ s⁻¹] | ka with equimolar PZ, lipids and FVa [1] [M⁻¹ s⁻¹] | kon [1] [M⁻¹ s⁻¹] | Kd [2] [nM] | kon [2] [M⁻¹ s⁻¹] |
| --- | --- | --- | --- | --- | --- |
| B1 | 1.79e+06 | 296000 | 9200 | 2 | 86200 |
| B2 | 85000 | 6800 | 9500 | 2 | 112000 |
| B3 |  |  |  |  | 2600 |
